Results from publication doi:10.1101/2023.02.24.529952.

Biological target: HCoV-OC43 Nucleocapsid (N) protein (2X-StrepTag tagged) (HCoV-OC43) (UniProt P33469)
Assay: BLI

Chain of HCoV-OC43 Nucleocapsid (N) protein (2X-StrepTag tagged) (HCoV-OC43) (P33469 whole entry): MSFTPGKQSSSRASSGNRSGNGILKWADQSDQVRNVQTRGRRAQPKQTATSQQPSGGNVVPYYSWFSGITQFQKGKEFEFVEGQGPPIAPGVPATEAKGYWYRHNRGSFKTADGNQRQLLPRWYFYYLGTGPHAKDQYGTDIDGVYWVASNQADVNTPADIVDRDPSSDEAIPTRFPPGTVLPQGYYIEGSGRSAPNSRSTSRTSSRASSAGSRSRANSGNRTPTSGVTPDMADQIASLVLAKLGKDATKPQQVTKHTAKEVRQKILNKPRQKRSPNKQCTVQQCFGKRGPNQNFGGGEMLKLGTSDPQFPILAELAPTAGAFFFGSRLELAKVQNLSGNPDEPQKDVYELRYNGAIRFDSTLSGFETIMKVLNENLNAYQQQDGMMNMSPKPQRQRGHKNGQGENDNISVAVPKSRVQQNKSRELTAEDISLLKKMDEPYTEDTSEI

**Q.** CXCL4 (ligand) was tested. Which Kd did it give?
**A.** 170 nM

**Q.** What about the koff of the same substance?
**A.** 0.00088 s⁻¹

**Q.** And the kon?
**A.** 5300 M⁻¹ s⁻¹
